From the supplement of paper PMC12764529
± gives the half width of the 95% confidence interval.

Assays:
[1] = folding stability dG unfold (combined trypsin and chymotrypsin); higher = more stable
In short: (§1)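 Only designs with AlphaFold2 dimer inter-PAE above 15 were retained; each was a mini-protein under 80 residues with no cysteine, in a PA-tagged cDNA display construct. After digestion with trypsin and chymotrypsin and sequencing, K50 was inferred by Bayesian fitting of counts, and unfolding free energy was derived per protease or combined against a sequence-predicted unfolded-state K50 and a shared folded-state K50.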

[2] = folding stability dG unfold from chymotrypsin proteolysis; higher = more stable
In short: as §1

[3] = folding stability dG unfold from trypsin proteolysis; higher = more stable
In short: as §1

Row | Sequence | folding stability dG unfold [1] [kcal/mol] | folding stability dG unfold [2] [kcal/mol] | folding stability dG unfold [3] [kcal/mol]
1 | SAGGKWIMFMIPPGEEIEDPNGLEIRYDPEEGEFEIENNKRPVKIPVHPHPDGWYMITIEIPPGVEVSAGGS [r16_245_TrROS] | 1.55 ± 0.22 | 1.12 ± 0.23 | 1.5 ± 0.074
2 | SAGGKWRTIQLPGISIQLNPKDGTITVMMPSDMMEELKEAFGPGFEIDEIHHHPDGWMQMTIPIKPPSAGGS [r8_415_TrROS] | 1.57 ± 0.15 | 1.75 ± 0.11 | 1.18 ± 0.035
3 | SAGGKYKVEIIDPKEGEKVFIEIDEETKKITIWNAKTGEKVAEFEIKDLKEGDTITLPNGFVIKIEKESAGG [r13_720_TrROS_Hall] | 4.61 ± 0.12 | 4.67 ± 0.079 | 3.67 ± 0.14
4 | SAGGLAEEIVEELKERFPGMDVDIDVKEEEDPNNGWVKITIMVRVRNPDDNKPRHEIQLDIEIPVDDSAGGS [r8_207_TrROS] | 1.82 ± 0.086 | 1.89 ± 0.036 | 1.69 ± 0.056
5 | SAGGLDGDMKVDEMEHDPNNGTYRYKAEAGDQWWTFEMKVVPVIPPIPISISPEDLQEGNWNISIWFSAGGS [r16_809_TrROS] | 2.09 ± 0.2 | 2.39 ± 0.08 | 1.46 ± 0.05
6 | SAGGLNFEIIEVSPNHIIARFPDAGYIIMAKIKMEWKPKRDPENGKPRYEPKFKIDIHVIPLKPGQPISAGG [r13_322_TrROS] | 4.09 ± 0.12 | 4.66 ± 0.17 | 3.27 ± 0.09
7 | SAGGLTVVSVDPSTNTITIKLGNKDIEITVPPDRPPEVTFTRDPSGTYTITITTEGSTTTYTIPLSQLPSAG [r5_500_JUSTAS] | 2.85 ± 0.07 | 3.143 ± 0.015 | 2.45 ± 0.052
8 | SAGGLVIPVTFMFQDWEEAEEFANEIARELANLYPGRPVKIDVEVEPIRNPNNGKRYYMVEATIEIDPSAGG [r13_545_TrROS] | 2.6 ± 0.15 | 2.77 ± 0.033 | 2.01 ± 0.059
9 | SAGGLVLPPDAVVTGTLTAPRPDGSTVTVRARVRFPPRPPPPPLVLVRLPDGSVRPVRSLEEARRLASAGGS [r16_580_TrMRF] | 3.49 ± 0.1 | 3.76 ± 0.059 | 3.16 ± 0.11
10 | SAGGLYVFDKNGKIISKVPKVEPIPIVITFPDGEKVLFEKYPGLNIIVVSYEGENPEKVKEAVKKILSSAGG [r13_701_TrMRF] | 0.977 ± 0.13 | 1.06 ± 0.14 | 0.835 ± 0.075
11 | SAGGMATITVTSDGVLKVTFVDPATGSPVKTIPLPLSEVEQLGAEKGSPLSLEEILKELGYPTEITLGSAGG [r13_836_JUSTAS] | 1.51 ± 0.045 | 1.48 ± 0.008 | 1.52 ± 0.059
12 | SAGGMDPDDLKGMPPEQAKDIVRDWIREYMQERNPNMPPGMKITDVPVEVRDPDNGKEIEVKVEIENYSAGG [r13_555_TrROS] | -0.242 ± 0.33 | -0.00917 ± 0.33 | -0.936 ± 0.37
13 | SAGGMEEVIEEAIEAAKKGENVTITLPASVDPEVVLKALEEASGLKVTPISVTPLPDGTLRIEVKIESAGGS [r16_318_JUSTAS] | 5.08 ± 0.54 | 4.24 ± 0.14 | 4.24 ± 0.19
14 | SAGGMEFTPDQFLIIVLGLPDDTLEVAIIPAGDIEKAFEELGFPLEEVDILEIVEADLTPEEAEELAESAGG [r13_850_TrMRF] | 1.68 ± 0.088 | 1.55 ± 0.046 | 1.81 ± 0.1
15 | SAGGMELFELEFEAEITPLEEPDKPVPVKIRILKRVEPVPNEPGFKVHYRALLENEEGVVPFEFTLDSAGGS [r16_300_TrMRF] | 1.42 ± 0.085 | 1.74 ± 0.085 | 0.998 ± 0.055
16 | SAGGMETWRIKVDGKEIEVTVEDGKITVTFADGTKVEITLEEGETPEEVAKRLAEELGADKVEIEKVPSAGG [r13_852_TrROS_Hall] | 3.3 ± 0.19 | 3.31 ± 0.078 | 3.38 ± 0.48
17 | SAGGMEVTLRITAEGPEQLEKIQEILDELDVEEVNPTENEVEFRFPGPEPLAKLKEIAEELGLKVEGSAGGS [r16_88_TrMRF] | -0.377 ± 0.25 | -0.635 ± 0.28 | -0.457 ± 0.23
18 | SAGGMEYDPETKTFHLHVPGGNLPELREAIENAPDRLVTIEVEDPLTDKPRLFTLPAEEARKFLEAGSAGGS [r16_797_TrMRF] | -0.254 ± 0.095 | -0.455 ± 0.25 | -0.182 ± 0.12
19 | SAGGMGTPFTTLTVTLEFPSSESLEEAKEKAEELAEELRRAHPEVVSIEIEVSKEGDTYKVKLTVTIASSAG [r5_446_JUSTAS] | 4.7 ± 0.13 | 4.72 ± 0.11 | 4.37 ± 0.22
20 | SAGGMHHLEIYRFEDRKLVVLHLEDKPVVIEVEPGLTEEEAAEKAIEALKEAFPDKEIVIDSVEVKEESAGG [r13_884_TrMRF] | 0.217 ± 0.11 | 0.41 ± 0.11 | -0.0489 ± 0.064
21 | SAGGMIEIIPNPPIIIVRDASTNEISVYNIDAPPGSITRVELTSDGSILIYNPATGKVLVLPKSDIKSAGGS [r16_410_TrMRF] | 1.62 ± 0.077 | 1.74 ± 0.071 | 1.33 ± 0.043

Row | Sequence | folding stability dG unfold [1] [kcal/mol] | folding stability dG unfold [2] [kcal/mol] | folding stability dG unfold [3] [kcal/mol]
22 | SAGGMIEVTIPLEEYFDENGNPTEEAKKKIEEAKKKAEELKKKGEPAEVKVTVVEPEPYVGPDNPELVSAGG [r13_731_JUSTAS] | 0.652 ± 0.28 | 0.569 ± 0.059 | 0.278 ± 0.29
23 | SAGGMIIIKFKTKEQAKKAIEAAKKGKEIEITLKDGKKIKAKVVKVEEKPNYVYLVIKTEDGKEIKFSAGGS [r16_254_TrROS_Hall] | 2.31 ± 0.12 | 2.42 ± 0.038 | 2.16 ± 0.086
24 | SAGGMIKIEKEEDGTLRITIVVPEKEEEAEELAEKLKEKLKELGVEEVKIEVVEKDGKVVVEIEVKKSAGGS [r8_113_TrROS_Hall] | 2.53 ± 0.13 | 2.77 ± 0.16 | 2.29 ± 0.1
25 | SAGGMIKPGEKVKVRAVLRVGEEEEEIELELPLPENATVEDIAQAILDLIPEEPRKDAEVDIEVEPVSAGGS [r16_321_TrMRF] | 0.93 ± 0.14 | 1.21 ± 0.094 | -0.468 ± 0.3
26 | SAGGMIKSEKLIKSPENETIKVETTIILDENGNPKSVKKKITVYKNGKPVKEMEISSIGNEIEIKKPSAGGS [r16_35_JUSTAS] | 1.14 ± 0.21 | 1.48 ± 0.15 | -0.308 ± 0.65
27 | SAGGMIPPEELAARAEAVREAAPASGEVVRTTVVLPSPGLVTRVDLVYEPGAGRITVESVSEVPPELLSAGG [r13_37_JUSTAS] | 0.461 ± 0.046 | 0.414 ± 0.032 | 0.496 ± 0.027
28 | SAGGMIPPEKLEEIAKKIAEETEPLGKVVKHLFVDPLEDEVVIIELTVYPGPKKIEIKEIKVYPPEELSAGG [r13_37_TrMRF] | 0.223 ± 0.16 | 0.251 ± 0.034 | 0.0241 ± 0.084
29 | SAGGMIPVSPEQYKAVEKLLKEGKDGSTVLVKTEDGRYIEIDPAGTARFFGDKPKEFPLEKIKKIIPSAGGS [r16_664_TrMRF] | 0.235 ± 0.12 | 0.469 ± 0.14 | -0.209 ± 0.13
30 | SAGGMITEEEILELEKRIREAAEAGDPETVEEELERAKEALEEYKKKGNKELLKKVEEIVKRAEELIASAGG [r13_137_JUSTAS] | 3.35 ± 0.26 | 2.7 ± 0.14 | 3.8 ± 0.2
31 | SAGGMKEIEIDIPLENGEPAKIRIILLNLPDKPRAFIDIESKILPKEEIAKIITKLLPEEIKEVVIDESAGG [r13_404_TrMRF] | 0.694 ± 0.28 | 0.383 ± 0.5 | 1.03 ± 0.092
32 | SAGGMKFKIVKIEVKEDKVTIEIEAETEEELEEAKKLAEELAKKLGLSKEKIEVKIELRPPPEEEEEESAGG [r13_430_TrROS_Hall] | 2.55 ± 0.52 | 2.19 ± 0.15 | 2.43 ± 0.23
33 | SAGGMKIEGMTPEEVEALAKALAEAGYEVVSVTVTYDPETDTVTVTVVVRDKKTGEIKKVVTVTLPPSAGGS [r16_750_TrROS_Hall] | 2.99 ± 0.072 | 2.69 ± 0.069 | 3.33 ± 0.1
34 | SAGGMKIEIEIEMTPEEVRKAIEELAKALGLKIVKVEVEVERKEDGTLRVRVTIEIEPLPEEELEPESAGGS [r8_374_TrROS_Hall] | 4 ± 0.25 | 4.32 ± 0.18 | 3.63 ± 0.16
35 | SAGGMKIEIKIIDEETGEEITITVTMTPEEIEKLAKELEEKYPGLEIVSVEIEEKDGEIIITIKIKKKSAGG [r13_196_TrROS_Hall] | 3.29 ± 0.21 | 2.71 ± 0.071 | 3.75 ± 0.25
36 | SAGGMKIEIVEVTPTRIRIRLENGEVLTLEEIRKLLEEEGLPEPMTVDQIAELLRKRGLKITEIEIVPSAGG [r13_610_TrROS_Hall] | 3.18 ± 0.083 | 3.274 ± 0.025 | 2.97 ± 0.052
37 | SAGGMKIIPLEEAEKFIEANPDKELVIGVRPGESLYLFVVKRDPDKPFNIEVLEVIEFDPDGNGRHLPSAGG [r13_481_TrMRF] | 1.3 ± 0.16 | 1.6 ± 0.1 | 1.14 ± 0.11
38 | SAGGMKIKAEDIVSVEVTYNEETNELTVKVTVRINGKEVTLTFPEGMSEEELKRLLEELIKKGELEIESAGG [r13_225_TrROS_Hall] | 2.78 ± 0.11 | 2.96 ± 0.1 | 2.19 ± 0.12
39 | SAGGMKIKDFEPVRVDENGMYVIDLKYEDPDNGNEYQVEFMIPNPPGNMHPITFTMKSPEDALDEILKSAGG [r13_26_TrROS] | -0.445 ± 0.13 | -0.325 ± 0.28 | -0.845 ± 0.27
40 | SAGGMKIKIKIKPGQVILIKIRNKETGEEKTILVEVKEDQEITIELPEGYEIVDIKIVPLEDLPEEELSAGG [r13_119_TrROS_Hall] | 4.05 ± 0.23 | 3.96 ± 0.17 | 3.94 ± 0.3
41 | SAGGMKIKITEVTVTRYYYDPKTGKLKKVEKVKVLVIEVELEPGQTAEEIAAALKKLFPDLKIVVVDSAGGS [r8_30_TrROS_Hall] | 5.17 ± 0.18 | 5.33 ± 0.11 | 4.14 ± 0.092
42 | SAGGMKIKKITVEKNPETGELVVTVEVEINGKKYKFTFYKDGTVKVEVEVNGKKVTITLPVEELKKLSAGGS [r8_238_TrROS_Hall] | 3.35 ± 0.13 | 3.8 ± 0.063 | 2.13 ± 0.058
